# Test results from patent US20230075753A1 (UCB, published 2023).
# T1: Active cyno KLK5 (cynomolgus monkey, UniProt Q9Y337 67-293 (human entry))
# T1 chain: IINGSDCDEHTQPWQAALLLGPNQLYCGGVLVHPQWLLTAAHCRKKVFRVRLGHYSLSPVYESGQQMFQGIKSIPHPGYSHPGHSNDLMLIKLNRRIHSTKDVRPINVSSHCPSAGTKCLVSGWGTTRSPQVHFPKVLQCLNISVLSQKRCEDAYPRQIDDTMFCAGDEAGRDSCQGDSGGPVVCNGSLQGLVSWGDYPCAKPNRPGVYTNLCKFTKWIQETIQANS
# Key:
# [1] = biological target: T2, Active human KLK5 (human, UniProt Q9Y337 67-293); assay: SPR; repeats Table 3 (footnote: as described in example 4 and Table 3)
# T2 construct: glycosylated; also called Hu KLK5; KLK5 analyte (prepared in house)
# [2] = biological target: T2, Active human KLK5; assay: SPR, Biacore T200, 25 C; mIgG captured on anti-mouse Fc, human KLK5 as analyte (20-0.25 nM), 1:1 model
# Procedure: The kinetics of murine IgG molecules binding to human KLK5 were assessed by surface plasmon resonance (Biacore T200, (GE Life Sciences™) at 25° C.
# Kinetic parameters were determined using a 1:1 binding model using Biacore T200 Evaluation software.
# [3] = biological target: T1, Active cyno KLK5; assay: cell-based or functional assay
# [4] = biological target: T2, Active human KLK5; assay: cell-based or functional assay
# [5] = biological target: T2, Active human KLK5; assay: SPR, Biacore T200, 25 C; IgG from supernatant captured on anti-human Fc, human KLK5 as analyte (20-0.08 nM), 1:1 model
# Procedure: (§1) A goat anti-human IgG Fc specific antibody (Jackson ImmunoResearch) was immobilized on a CM5 Sensor Chip via amine coupling chemistry to a level of approximately 6000RU. Each analysis cycle consisted of capture of the anti-KLK5 IgG from supernatants to the anti Fc surface, injection of KLK5 analyte (prepared in house) for 180 s at 30 μl/min followed by 600 s dissociation. At the end of each cycle the surface was regenerated at a flowrate of 10 μL/min using a 60 s injection of 50 mM HCl followed by a 30 s injection of 5 mM NaOH and a final 60 s injection of 50 mM HCl. Human KLK5 was titrated from 20 nM to 0.08 nM (5×3-fold serial dilutions) for the supernatant in HBS-EP+ running buffer (GE Healthcare®) supplemented to a final concentration of 300 mM NaCl. Buffer blank injections were included to subtract instrument noise and drift. Kinetic parameters were determined using a 1:1 binding model using Biacore T200 Evaluation software (version 3.0). Experiments were carried out at 25° C.
# [6] = biological target: T2, Active human KLK5; assay: SPR, Biacore T200, 25 C; IgG from supernatant captured on anti-human Fc, human KLK5 as analyte (20-0.08 nM), 1:1 model; run at the start or end of the assay
# Procedure: as §1
# [7] = biological target: T2, Active human KLK5; assay: SPR, Biacore T200, 25 C; IgG from supernatant captured on anti-human Fc, human KLK5 as analyte (20-0.08 nM), 1:1 model; second run of the chimera; second run of the chimera (start and end of the assay)
# Procedure: as §1
Binder,Kd [5] [nM],koff [5] [s⁻¹],kon [5] [M⁻¹ s⁻¹],other results
Rabbit antibody 10236 mIgG (rabbit variable regions on mouse constant regions) (antibody) light: AYDMTQTPASVEVAVGGTVTIKCQASQSISSWLAWYQQKPGQPPKLLIYLASTLASGVSSRFKGSGSGTQFTLTISGVECADAATYYCQQGYTNSNIINTFGGGTEVVVKRTDAAPTVSIFPPSSEQLTSGGASVVCFLNNFYPKDINVKWKIDGSERQNGVLNSWTDQDSKDCTYSMSSTLTLTKDEYERHNSYTCEATHKTSTSPIVKSFNRNEC heavy: QSVEESGGRLVTPGTPLTLTCTVSGFPLSNYAMSWVRQAPGKGLEWIGDIYPSDIIDYASWAKGRFTISQTSTTVELKITGPTTEDTATYFCARDNNDYGLDIWGPGTLVTVSSAKTTPPSVYPLAPGSAAQTNSMVTLGCLVKGYFPEPVTVTWNSGSLSSGVHTFPAVLQSDLYTLSSSVTVPSSTWPSETVTCNVAHPASSTKVDKKIVPRDCGCKPCICTVPEVSSVFIFPPKPKDVLTITLTPKVTCVVVDISKDDPEVQFSWFVDDVEVHTAQTQPREEQFNSTFRSVSELPIMHQDWLNGKEFKCRVNSAAFPAPIEKTISKTKGRPKAPQVYTIPPPKEQMAKDKVSLTCMITDFFPEDITVEWQWNGQPAENYKNTQPIMDTDGSYFVYSKLNVQKSNWEAGNTFTCSVLHEGLHNHHTEKSLSHSPGK,–,–,–,"Kd [1]: 0.172 nM; koff [1]: 0.000517 s⁻¹; kon [1]: 3e+06 M⁻¹ s⁻¹; Kd [2]: 0.172 nM; koff [2]: 0.000517 s⁻¹; kon [2]: 3e+06 M⁻¹ s⁻¹; IC50 (M), inhibition of kallikrein protease activity (fluorogenic peptide substrate) [3]: 3.3e-11 M; IC50 (M), inhibition of kallikrein protease activity (fluorogenic peptide substrate) [4]: 2.4e-10 M"
"Rabbit antibody 10273 mIgG (rabbit variable regions on mouse constant regions) (antibody, V domains shown) VH: QSVEESGGRLVTPGTPLTLTCTVSGFSLSSYGMSWVRQAPGKGLEWIGIISSSGSTYYASWAKGRFTISKTSTTVDLKIASPTTEDTATYFCARDHIYRYDDYGDYPTYYGMDPWGPGTLVTVSS VL: AVVLTQTPSPMSAAVGGTVTISCQSSQSVYNNNDLAWYQQKPGQPPKLLIYRASTLASGVPSRFSGSGSGTQFTLTISGVQCDDAATYYCLGGYDDDVDTYTFGGGTEVVVKR",–,–,–,"Kd [2]: 0.16 nM; koff [2]: 0.000184 s⁻¹; kon [2]: 1.14e+06 M⁻¹ s⁻¹; IC50 (M), inhibition of kallikrein protease activity (fluorogenic peptide substrate) [3]: 3.01e-10 M; IC50 (M), inhibition of kallikrein protease activity (fluorogenic peptide substrate) [4]: 3.48e-11 M"
"Rabbit antibody 10236 (rabbit IgG) (antibody, V domains shown) VL: AYDMTQTPASVEVAVGGTVTIKCQASQSISSWLAWYQQKPGQPPKLLIYLASTLASGVSSRFKGSGSGTQFTLTISGVECADAATYYCQQGYTNSNIINTFGGGTEVVVK VH: QSVEESGGRLVTPGTPLTLTCTVSGFPLSNYAMSWVRQAPGKGLEWIGDIYPSDIIDYASWAKGRFTISQTSTTVELKITGPTTEDTATYFCARDNNDYGLDIWGPGTLVTVSS",–,–,–,"IC50 (M), inhibition of kallikrein protease activity (fluorogenic peptide substrate) [3]: 2.76e-11 M; IC50 (M), inhibition of kallikrein protease activity (fluorogenic peptide substrate) [4]: 1.74e-10 M"
"Humanized antibody 10236 gL6 gH9 (antibody, V domains shown, Tested as IgG from supernatant captured by anti-human Fc) VH: EVQLQESGPGLVKPSGTLSLTCAVSGFPLSNYAMSWVRQPPGKGLEWIGDIYPSDIIDYASWAKGRVTISQDSSKTQVSLKLSSVTAADTAVYYCARDNNDYGLDIWGQGTLVTVSS VL: AYDMTQSPSSLSASVGDRVTITCQASQSISSWLAWYQQKPGKAPKLLIYLASTLASGVPSRFSGSGSGTDFTLTISSLQPEDFATYYCQQGYTNSNIINTFGGGTKVEIKR",0.475,0.00091,1.91e+06,–
"Humanized antibody 10236 gL5 gH12 (antibody, V domains shown, Tested as IgG from supernatant captured by anti-human Fc) VH: EVQLQESGPGLVKPSGTLSLTCAVSGFPLSNYAMSWVRQPPGKGLEWIGDIYPSDIIDYASWAKGRVTISQDSSKNQVSLKLSSVTAADTAVYYCARDNNDYGLDIWGQGTLVTVSS VL: AYDMTQSPSSLSASVGDRVTITCQASQSISSWLAWYQQKPGKAPKLLIYLASTLASGVPSRFKGSGSGTDFTLTISSLQPEDFATYYCQQGYTNSNIINTFGGGTKVEIKR",0.331,0.000669,2.03e+06,–
"Humanized antibody 10236 gL5 gH9 (antibody, V domains shown, Tested as IgG from supernatant captured by anti-human Fc) VH: EVQLQESGPGLVKPSGTLSLTCAVSGFPLSNYAMSWVRQPPGKGLEWIGDIYPSDIIDYASWAKGRVTISQDSSKTQVSLKLSSVTAADTAVYYCARDNNDYGLDIWGQGTLVTVSS VL: AYDMTQSPSSLSASVGDRVTITCQASQSISSWLAWYQQKPGKAPKLLIYLASTLASGVPSRFKGSGSGTDFTLTISSLQPEDFATYYCQQGYTNSNIINTFGGGTKVEIKR",0.484,0.000929,1.92e+06,–
"Rabbit/human antibody 10236 (chimera) (antibody, human IgG4 S228P, kappa, also called rabbit/human chimera antibody) light: AYDMTQTPASVEVAVGGTVTIKCQASQSISSWLAWYQQKPGQPPKLLIYLASTLASGVSSRFKGSGSGTQFTLTISGVECADAATYYCQQGYTNSNIINTFGGGTEVVVKRTVAAPSVFIFPPSDEQLKSGTASVVCLLNNFYPREAKVQWKVDNALQSGNSQESVTEQDSKDCTYSLSSTLTLSKADYEKHKVYACEVTHQGLSSPVTKSFNRGEC heavy: not shown",–,–,–,Kd [6]: 0.168 nM; koff [6]: 0.000451 s⁻¹; kon [6]: 2.69e+06 M⁻¹ s⁻¹; Kd [7]: 0.152 nM; koff [7]: 0.000409 s⁻¹; kon [7]: 2.7e+06 M⁻¹ s⁻¹

# Second part, led by results:
Kd [5] [nM],koff [5] [s⁻¹],kon [5] [M⁻¹ s⁻¹],Binder,other results
0.333,0.000669,2.01e+06,"Humanized antibody 10236 gL6 Q24R gH12 (antibody, V domains shown) VH: EVQLQESGPGLVKPSGTLSLTCAVSGFPLSNYAMSWVRQPPGKGLEWIGDIYPSDIIDYASWAKGRVTISQDSSKNQVSLKLSSVTAADTAVYYCARDNNDYGLDIWGQGTLVTVSS VL: AYDMTQSPSSLSASVGDRVTITCRASQSISSWLAWYQQKPGKAPKLLIYLASTLASGVPSRFSGSGSGTDFTLTISSLQPEDFATYYCQQGYTNSNIINTFGGGTKVEIKR",–
0.481,0.000811,1.69e+06,"Humanized antibody 10236 gL5 gH11 (antibody, V domains shown, Tested as IgG from supernatant captured by anti-human Fc) VH: EVQLQESGPGLVKPSGTLSLTCAVSGFPLSNYAMSWVRQPPGKGLEWIGDIYPSDIIDYASWAKGRVTISQDKSKTQVSLKLSSVTAADTAVYYCARDNNDYGLDIWGQGTLVTVSS VL: AYDMTQSPSSLSASVGDRVTITCQASQSISSWLAWYQQKPGKAPKLLIYLASTLASGVPSRFKGSGSGTDFTLTISSLQPEDFATYYCQQGYTNSNIINTFGGGTKVEIKR",–
0.337,0.000687,2.04e+06,"Humanized antibody 10236 gL6 Q24K gH12 (antibody, V domains shown) VH: EVQLQESGPGLVKPSGTLSLTCAVSGFPLSNYAMSWVRQPPGKGLEWIGDIYPSDIIDYASWAKGRVTISQDSSKNQVSLKLSSVTAADTAVYYCARDNNDYGLDIWGQGTLVTVSS VL: AYDMTQSPSSLSASVGDRVTITCKASQSISSWLAWYQQKPGKAPKLLIYLASTLASGVPSRFSGSGSGTDFTLTISSLQPEDFATYYCQQGYTNSNIINTFGGGTKVEIKR",–
0.541,0.00105,1.93e+06,"Humanized antibody 10236 gL6 gH10 (antibody, V domains shown, Tested as IgG from supernatant captured by anti-human Fc) VH: EVQLQESGPGLVKPSGTLSLTCAVSGFPLSNYAMSWVRQPPGKGLEWIGDIYPSDIIDYASWAKGRVTISVDSSKTQVSLKLSSVTAADTAVYYCARDNNDYGLDIWGQGTLVTVSS VL: AYDMTQSPSSLSASVGDRVTITCQASQSISSWLAWYQQKPGKAPKLLIYLASTLASGVPSRFSGSGSGTDFTLTISSLQPEDFATYYCQQGYTNSNIINTFGGGTKVEIKR",–
0.546,0.00107,1.97e+06,"Humanized antibody 10236 gL5 gH10 (antibody, V domains shown, Tested as IgG from supernatant captured by anti-human Fc) VH: EVQLQESGPGLVKPSGTLSLTCAVSGFPLSNYAMSWVRQPPGKGLEWIGDIYPSDIIDYASWAKGRVTISVDSSKTQVSLKLSSVTAADTAVYYCARDNNDYGLDIWGQGTLVTVSS VL: AYDMTQSPSSLSASVGDRVTITCQASQSISSWLAWYQQKPGKAPKLLIYLASTLASGVPSRFKGSGSGTDFTLTISSLQPEDFATYYCQQGYTNSNIINTFGGGTKVEIKR",–
0.475,0.000802,1.69e+06,"Humanized antibody 10236 gL6 gH11 (antibody, V domains shown, Tested as IgG from supernatant captured by anti-human Fc) VH: EVQLQESGPGLVKPSGTLSLTCAVSGFPLSNYAMSWVRQPPGKGLEWIGDIYPSDIIDYASWAKGRVTISQDKSKTQVSLKLSSVTAADTAVYYCARDNNDYGLDIWGQGTLVTVSS VL: AYDMTQSPSSLSASVGDRVTITCQASQSISSWLAWYQQKPGKAPKLLIYLASTLASGVPSRFSGSGSGTDFTLTISSLQPEDFATYYCQQGYTNSNIINTFGGGTKVEIKR",–
